Source: patent US20090238791A1 (INSTITUT NATIONAL DE LA SANTE ET DE LA RECHERCHE MEDICALE …, published 2009)

Columns and labels:
Recombinant human IL-15 [1] = target: T1, Recombinant human IL-15 (human, UniProt P40933 49-162); experiment: SPR, BIAcore 2000
T1 construct: also called rIL-15; human rIL-15
Protocol: (§1) These experiments were performed with a BIACore 2000 biosensor (BIACore, Uppsala, Sweden). rIL-15 was covalently linked to CM5 sensor chips, and the binding of increasing concentrations of sIL-15Rα-IL-2, sIL-15Rα-sushi-IL-2 or sIL-15Rα-sushi was monitored. Analysis of sensograms was performed using BIAlogue kinetics evaluation software.

Recombinant human IL-15 [2] = target: T1, Recombinant human IL-15; experiment: cell-based or functional assay
Recombinant human IL-15 [3] = target: T1, Recombinant human IL-15; experiment: Competition with 125I-rIL-15 (200 pM) binding to IL-15Rα on TF-1 cells
Protocol: The three soluble forms of IL-15Rα were tested for their ability to compete out the binding of radio-iodinated IL-15 to IL-15Rα expressed by the human cell line TF-1 which also expresses the IL-15Rγ chain, but not the IL-15Rβ chain (FIG. 1D).

[4] = target: T2, IL-15Rβ/γ complex (intermediate affinity receptor), human (human, UniProt P14784 27-551; P31785 23-369); experiment: 125I-sIL-15Rα-sushi saturation binding to TF-1β cells in the presence of 1 nM rIL-15
T2 construct: whole, on cells; Found on Mo-7 cells, which express IL-15Rβ/γ but not IL-15Rα; also called IL-15Rbeta/gamma; IL-2Rβ/γ
Protocol: Labeling with [¹²⁵I]-iodine of human rIL-15, sIL-15Rα-sushi and RLI fusion protein, and subsequent binding experiments were performed as described previously (19). For internalization, cells were equilibrated at 4° C. with labeled sIL-15Rα-sushi or RLI, and the temperature switched to 37° C. At different time intervals, two samples were washed and centrifuged. One of the cell pellets was treated with glycine-HCl buffer 0.2 M, pH 2.5, whereas the other was treated with PBS pH 7.4 at 4° C. for 5 min. After centrifugation, total ligand binding was determined from the pellet of the cells treated with PBS, whereas the membrane bound and internalized fractions were determined respectively from the supernatant and pellet of cells treated with acid pH.
As further shown in FIG. 6D, the radiolabeled sIL-15Rα-sushi was efficiently internalized. Radiolabeled RLI fusion protein also bound to TF1β cells (FIG. 6E). […] Once bound, the RLI was also efficiently internalized (FIG. 6F).

Recombinant human IL-15 [5] = target: T1, Recombinant human IL-15; experiment: SPR
Recombinant human IL-15 [6] = target: T1, Recombinant human IL-15; experiment: SPR, analysis of sensorgrams
Protocol: as §1

T1 sequence (P40933 49-162 limits assumed): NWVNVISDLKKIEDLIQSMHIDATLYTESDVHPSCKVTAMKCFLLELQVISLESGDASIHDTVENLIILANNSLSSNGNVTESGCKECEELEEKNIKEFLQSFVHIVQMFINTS
T2 sequence (P14784 whole entry, chain 1 of 2): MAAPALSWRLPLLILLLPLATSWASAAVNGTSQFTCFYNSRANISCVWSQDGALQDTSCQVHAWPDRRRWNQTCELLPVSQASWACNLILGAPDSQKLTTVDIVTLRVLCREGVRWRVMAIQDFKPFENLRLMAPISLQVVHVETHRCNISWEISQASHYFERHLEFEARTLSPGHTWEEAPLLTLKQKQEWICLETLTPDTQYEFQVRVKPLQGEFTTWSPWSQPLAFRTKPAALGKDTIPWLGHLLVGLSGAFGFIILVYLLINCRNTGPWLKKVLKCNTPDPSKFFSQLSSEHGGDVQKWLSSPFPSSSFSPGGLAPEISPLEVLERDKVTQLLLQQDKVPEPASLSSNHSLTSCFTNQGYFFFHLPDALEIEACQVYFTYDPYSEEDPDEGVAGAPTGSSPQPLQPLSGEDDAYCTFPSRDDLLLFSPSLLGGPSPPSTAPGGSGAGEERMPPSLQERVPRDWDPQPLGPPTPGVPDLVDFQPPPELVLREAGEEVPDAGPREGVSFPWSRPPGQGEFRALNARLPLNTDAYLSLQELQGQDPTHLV
T2 sequence (P31785 whole entry, chain 2 of 2): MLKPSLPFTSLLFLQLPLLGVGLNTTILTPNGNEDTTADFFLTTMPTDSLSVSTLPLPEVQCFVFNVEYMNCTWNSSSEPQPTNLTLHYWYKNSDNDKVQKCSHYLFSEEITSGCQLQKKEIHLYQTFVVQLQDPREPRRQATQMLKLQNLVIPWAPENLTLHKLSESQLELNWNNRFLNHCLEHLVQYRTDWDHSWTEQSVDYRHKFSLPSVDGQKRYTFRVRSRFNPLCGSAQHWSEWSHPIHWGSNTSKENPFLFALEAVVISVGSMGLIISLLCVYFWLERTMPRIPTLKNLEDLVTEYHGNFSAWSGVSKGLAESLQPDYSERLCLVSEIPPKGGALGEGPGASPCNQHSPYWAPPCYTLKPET

Row | Kd (Recombinant human IL-15 [1]) [nM] | koff (Recombinant human IL-15 [1]) [s⁻¹] | kon (Recombinant human IL-15 [1]) [M⁻¹ s⁻¹] | IC50 of the potentiation of Mo-7 proliferation driven by a fixed concentration of rIL-15 (1 nM) (Recombinant human IL-15 [2]) [nM] | IC50 (Recombinant human IL-15 [3]) [nM] | Kd [4] [nM] | fold increase in binding affinity compared to sIL-15Rα-Sushi-IL-2 (Recombinant human IL-15 [5]) [fold] | fold lower affinity than the full length soluble IL-15Rα (Recombinant human IL-15 [5]) [fold] | Kd (Recombinant human IL-15 [6]) [nM] | Binder
1 | 1.5 | 0.00038 | 250000 | 3.5 | 1.3 | 3.5 | – | – | – | sIL-15Rα-sushi (receptor, also called soluble sushi domain; not shown: Vector-encoded tag of pQE30; The protein was trapped on Ni-NTA agarose) ITCPPPMSVEHADIWVKSYSLYSRERYICNSGFKRKAGTSSLTECVLNKATNVAHWTTPSLKCIRD
2 | – | – | – | – | – | – | 4 | 3 | 0.102 | sIL-15Rα-Sushi+ (receptor, Expressed in SF9 insect cells; No sentence names it for Sushi+; also called Sushi15+; Flag-Factor Xa tagged sIL-15Rα-Sushi+; not shown: Flag-Factor Xa tag) ITCPPPMSVEHADIWVKSYSLYSRERYICNSGFKRKAGTSSLTECVLNKATNVAHWTTPSLKCIRDPALVHQRPAPP
